{"source": "patent US7125658B2", "about": "“Small protein that interacts with a ribonucleotide reductase subunit and uses thereof” (The Trustees of Columbia University in the City of New York, priority 1998, dated 2006)", "key": {"GAD": {"molecular_target": "T1, GAD (Saccharomyces cerevisiae, UniProt P04386)", "T1 construct": "expressed in transfected cells; host or cells: S. cerevisiae two-hybrid strain PJ69-4A", "T1 sequence (P04386 768-881 limits assumed)": "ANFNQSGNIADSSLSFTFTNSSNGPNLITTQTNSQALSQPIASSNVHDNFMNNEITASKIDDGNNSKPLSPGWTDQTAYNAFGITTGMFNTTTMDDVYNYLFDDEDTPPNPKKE", "assay": "yeast two-hybrid assay against GAD alone", "type": "cell-based", "from_the_text": "(§1) The strains and plasmids for two-hybrid analysis were PJ69-4A, pGBD-C2, pGAD-C2 (James et al., 1996) and pACTII (CLONTECH® Inc.). The primer pair pB-SML1 5′ (SEQ ID NO: 11) and pGBD-SML1 3′ (SEQ ID NO: 13) (Table 4) was used to amplify the SML1 ORF. After digestion with BamHI and PstI, this PCR product was cloned into the BamHI-PstI sites of pGBD-C2 to construct plasmid pWJ728. Similarly, plasmid pWJ684 contains a BamHI fragment from the PCR product of the SML1 ORF generated using the primer pair pB-SML1 5′ and pB-SML1 3′ (SEQ ID NO: 12) (Table 4) and inserted at the BamHI site of pACTII. PCR fragments containing the RNR1 or the RNR2 ORF were generated by primer pairs RNR1-ORF 5′ (SEQ ID NO: 14) and RNR1 3′ (SEQ ID NO: 15) or RNR2-ORF 5′ (SEQ ID NO: 17) and RNR2 3′ (SEQ ID NO: 16) (Table 4). These fragments were cloned into the BamHI-PstI site of pGBD-C2 and pGAD-C2 to construct pWJ731 and pWJ745 or pWJ729 and pWJ746 respectively.\n(§2) The GAL1-HIS3 reporter was assayed on SC-HIS-LEU-TRP medium plus 1-2 mM 3-aminotriazole. The GAL2-ADE2 reporter was assayed on SC-ADE-LEU-TRP medium."}, "GAD-RNR2": {"molecular_target": "T2, GAD-RNR2 (Saccharomyces cerevisiae, UniProt P09938)", "T2 construct": "expressed in transfected cells; host or cells: S. cerevisiae two-hybrid strain PJ69-4A", "T2 sequence (P09938 1-399)": "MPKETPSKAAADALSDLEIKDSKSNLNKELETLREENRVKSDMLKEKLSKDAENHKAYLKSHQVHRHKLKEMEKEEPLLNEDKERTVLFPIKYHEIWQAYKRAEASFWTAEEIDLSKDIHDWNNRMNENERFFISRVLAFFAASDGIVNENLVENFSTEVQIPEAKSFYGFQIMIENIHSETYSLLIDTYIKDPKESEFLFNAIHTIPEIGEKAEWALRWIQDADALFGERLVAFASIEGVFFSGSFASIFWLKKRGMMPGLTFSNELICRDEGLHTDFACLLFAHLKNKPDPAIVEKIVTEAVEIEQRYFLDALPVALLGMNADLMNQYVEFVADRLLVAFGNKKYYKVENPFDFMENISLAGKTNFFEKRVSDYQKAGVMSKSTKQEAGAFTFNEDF", "assay": "yeast two-hybrid assay against GAD-RNR2", "type": "cell-based", "parameters": "key to HIS3 reporter / ADE2 reporter: + signifies growth on histidine-less and adenine-less media; +/− signifies constructs unable to grow on adenine-less medium but able to give rise to white colonies on YPD medium", "from_the_text": "as §1, §2"}, "GAD-SML1": {"molecular_target": "T3, GAD-SML1 (Saccharomyces cerevisiae, UniProt Q04964)", "T3 construct": "expressed in transfected cells; host or cells: S. cerevisiae two-hybrid strain PJ69-4A", "T3 sequence (Q04964 1-104)": "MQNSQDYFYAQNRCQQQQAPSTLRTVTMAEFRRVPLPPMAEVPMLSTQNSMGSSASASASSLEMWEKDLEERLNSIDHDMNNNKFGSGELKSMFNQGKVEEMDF", "assay": "yeast two-hybrid assay against GAD-SML1", "type": "cell-based", "from_the_text": "as §1, §2"}, "[1]": {"molecular_target": "GAD-Sml1 two-hybrid fusion (plasmid pWJ684, pACTII) (Saccharomyces cerevisiae (yeast)) (UniProt Q04964)", "assay": "cell-based or functional assay"}, "[2]": {"molecular_target": "T4, GAD-Sml1 two-hybrid fusion (plasmid pWJ684, pACTII) (Saccharomyces cerevisiae (yeast), UniProt Q04964 1-104)", "T4 sequence": "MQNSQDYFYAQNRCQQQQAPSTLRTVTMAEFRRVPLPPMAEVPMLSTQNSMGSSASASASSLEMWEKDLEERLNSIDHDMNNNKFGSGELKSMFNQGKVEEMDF", "assay": "cell-based or functional assay"}, "[3]": {"molecular_target": "T5, GAD-Rnr1 two-hybrid fusion (plasmid pWJ745) (yeast (Saccharomyces cerevisiae), UniProt P21524 1-888)", "T5 sequence (looked up)": "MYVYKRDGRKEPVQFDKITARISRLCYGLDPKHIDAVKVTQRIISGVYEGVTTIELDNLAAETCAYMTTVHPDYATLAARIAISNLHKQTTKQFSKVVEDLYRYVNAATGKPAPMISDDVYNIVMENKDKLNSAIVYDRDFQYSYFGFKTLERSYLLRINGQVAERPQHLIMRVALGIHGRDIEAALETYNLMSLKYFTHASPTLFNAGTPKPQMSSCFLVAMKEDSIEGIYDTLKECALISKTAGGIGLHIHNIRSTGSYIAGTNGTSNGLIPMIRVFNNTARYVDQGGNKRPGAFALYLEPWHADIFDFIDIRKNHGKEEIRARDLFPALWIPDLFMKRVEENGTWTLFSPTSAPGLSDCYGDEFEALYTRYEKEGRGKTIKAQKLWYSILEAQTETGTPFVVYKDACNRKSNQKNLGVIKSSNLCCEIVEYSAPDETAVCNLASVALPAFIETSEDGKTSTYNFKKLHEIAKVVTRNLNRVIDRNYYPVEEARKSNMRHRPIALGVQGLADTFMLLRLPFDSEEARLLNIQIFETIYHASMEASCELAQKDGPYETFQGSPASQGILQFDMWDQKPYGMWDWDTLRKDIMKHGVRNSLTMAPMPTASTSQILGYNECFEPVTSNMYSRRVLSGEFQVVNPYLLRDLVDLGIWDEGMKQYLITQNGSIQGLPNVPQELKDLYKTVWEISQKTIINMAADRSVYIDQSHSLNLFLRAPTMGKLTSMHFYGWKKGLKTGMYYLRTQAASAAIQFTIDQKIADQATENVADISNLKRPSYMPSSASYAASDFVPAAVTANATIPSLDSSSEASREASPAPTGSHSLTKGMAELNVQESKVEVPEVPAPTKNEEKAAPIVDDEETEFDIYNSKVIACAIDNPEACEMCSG", "assay": "cell-based or functional assay"}, "[4]": {"molecular_target": "T6, GAD (Gal4 activation domain alone, empty vector control) (UniProt P04386 768-881)", "T6 sequence (looked up)": "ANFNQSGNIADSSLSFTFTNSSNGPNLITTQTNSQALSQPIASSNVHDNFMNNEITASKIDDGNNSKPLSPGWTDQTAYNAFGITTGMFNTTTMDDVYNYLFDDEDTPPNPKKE", "assay": "cell-based or functional assay"}}}
{"molecule": "RNR2: GBD (Gal4 DNA binding domain) fusion of the RNR2 ORF in pGBD-C2, two-hybrid construct (GAFTFNEDF)", "values": [{"measurement": "LacZ activity", "setting": "GAD", "result": "1.4 ± 0.1", "unit": "Miller Units"}, {"measurement": "LacZ activity", "setting": "GAD-RNR2", "result": "2.3 ± 0.4", "unit": "Miller Units"}, {"measurement": "ADE2 reporter", "setting": "GAD-RNR2; SC-ADE-LEU-TRP", "result": "+/−"}, {"measurement": "HIS3 reporter", "setting": "GAD-RNR2; SC-HIS-LEU-TRP plus 3-aminotriazole", "result": "+"}, {"measurement": "LacZ activity", "setting": "GAD-SML1", "result": "0.9 ± 0.4", "unit": "Miller Units"}]}
{"molecule": "GBD vector (Gal4 DNA binding domain alone, empty vector control) (from UniProt P04386 1-147)", "values": [{"measurement": "two-hybrid LacZ activity", "setting": "[1]", "result": 0.4, "unit": "Miller Units"}]}
{"molecule": "GBD-Rnr1 two-hybrid fusion (plasmid pWJ731) (other, UniProt P04386 1-147, looked up) MKLLSSIEQACDICRLKKLKCSKEKPKCAKCLKNNWECRYSPKTKRSPLTRAHLTEVESRLERLEQLFLLIFPREDLDMILKMDSLQDIKALLTGLFVQDNVNKDAVTDRLASVETDMPLTLRQHRISATSSSEESSNKGQRQLTVSMYVYKRDGRKEPVQFDKITARISRLCYGLDPKHIDAVKVTQRIISGVYEGVTTIELDNLAAETCAYMTTVHPDYATLAARIAISNLHKQTTKQFSKVVEDLYRYVNAATGKPAPMISDDVYNIVMENKDKLNSAIVYDRDFQYSYFGFKTLERSYLLRINGQVAERPQHLIMRVALGIHGRDIEAALETYNLMSLKYFTHASPTLFNAGTPKPQMSSCFLVAMKEDSIEGIYDTLKECALISKTAGGIGLHIHNIRSTGSYIAGTNGTSNGLIPMIRVFNNTARYVDQGGNKRPGAFALYLEPWHADIFDFIDIRKNHGKEEIRARDLFPALWIPDLFMKRVEENGTWTLFSPTSAPGLSDCYGDEFEALYTRYEKEGRGKTIKAQKLWYSILEAQTETGTPFVVYKDACNRKSNQKNLGVIKSSNLCCEIVEYSAPDETAVCNLASVALPAFIETSEDGKTSTYNFKKLHEIAKVVTRNLNRVIDRNYYPVEEARKSNMRHRPIALGVQGLADTFMLLRLPFDSEEARLLNIQIFETIYHASMEASCELAQKDGPYETFQGSPASQGILQFDMWDQKPYGMWDWDTLRKDIMKHGVRNSLTMAPMPTASTSQILGYNECFEPVTSNMYSRRVLSGEFQVVNPYLLRDLVDLGIWDEGMKQYLITQNGSIQGLPNVPQELKDLYKTVWEISQKTIINMAADRSVYIDQSHSLNLFLRAPTMGKLTSMHFYGWKKGLKTGMYYLRTQAASAAIQFTIDQKIADQATENVADISNLKRPSYMPSSASYAASDFVPAAVTANATIPSLDSSSEASREASPAPTGSHSLTKGMAELNVQESKVEVPEVPAPTKNEEKAAPIVDDEETEFDIYNSKVIACAIDNPEACEMCSG", "values": [{"measurement": "two-hybrid LacZ activity", "setting": "[2]", "result": 85, "unit": "Miller Units"}, {"measurement": "two-hybrid LacZ activity", "setting": "[3]", "result": 2.9, "unit": "Miller Units"}, {"measurement": "two-hybrid LacZ activity", "setting": "[4]", "result": 0.8, "unit": "Miller Units"}]}
